# Assay results from US20140271661A1 (Bayer, published 2014).
# How the values were obtained:
# [1] = biological target: T1, human antithrombin β complexed with heparin (human ATβH) (human, UniProt P01008 33-464, lacks glycosylation at Asn135 (β glyco-isoform); complexed with heparin); assay: panning and screening of human antibody libraries against human ATβ in complex with heparin
# T1 construct: mature; Heparin is a non-protein cofactor; also called hATβH; hATβ
# [2] = biological target: T1, human antithrombin β complexed with …; assay: cell-based or functional assay
# [3] = biological target: rabbit antithrombin β complexed with heparin (rATβH) (rabbit); assay: cell-based or functional assay
# [4] = biological target: cynomolgus antithrombin (ATβH species homolog, in Cyno plasma) (Cyno); assay: cell-based or functional assay
# T1 sequence (P01008 33-464, one chain of several): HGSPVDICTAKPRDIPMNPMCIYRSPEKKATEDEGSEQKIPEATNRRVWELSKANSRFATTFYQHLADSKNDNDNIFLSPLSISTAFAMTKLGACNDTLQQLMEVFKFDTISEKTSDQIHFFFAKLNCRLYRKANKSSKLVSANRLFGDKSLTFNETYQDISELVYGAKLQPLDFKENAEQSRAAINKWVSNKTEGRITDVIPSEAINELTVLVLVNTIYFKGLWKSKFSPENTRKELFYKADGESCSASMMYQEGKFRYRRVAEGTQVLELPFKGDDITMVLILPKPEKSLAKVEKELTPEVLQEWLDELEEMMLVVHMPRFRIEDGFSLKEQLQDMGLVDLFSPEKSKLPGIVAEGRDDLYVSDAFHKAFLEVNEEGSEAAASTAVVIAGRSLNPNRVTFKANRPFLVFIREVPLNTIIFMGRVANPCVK
Binder,binding result [1],"EC50, FXa-Activated Clotting Assay, human HEM A plasma [2] [nM]","EC50, FXa-Activated Clotting Assay, human normal plasma [2] [nM]",further results
"TPP-2019 hIgG (antibody, V domains shown) VH: EVQLLESGGGLVQPGGSLRLSCAASGFTFSRYAMYWVRQAPGKGLEWVSRISPSGGKTHYADSVKGRFTISRDNSKNTLYLQMNSLRAEDTAVYYCARLSQTGYYPHYHYYGMDVWGQGTTVTVSS VL: DIQMTQSPATLSLSPGERATLSCRASQRVSSSYLTWYQQKPGQAPRLLIYGASSRATGIPDRFSGSGSGTDFTLTISRLEPEDFAVYYCQQYDSTPPLTFGGGTKVEIKR",binds,–,–,–
"TPP2009 hIgG1 (antibody, V domains shown) VH: EVQLLESGGGLVQPGGSLRLSCAASGFTFSAYRMGWVRQAPGKGLEWVSRIYSSGGRTRYADSVKGRFTISRDNSKNTLYLQMNSLRAEDTAVYYCAREKASDLSGSFSEALDYWGQGTLVTVSS VL: AQSVLTQDPAVSVALGQTVRITCQGDSLRSYYASWYQQKPGQAPVLVIYGKNNRPSGIPDRFSGSSSGNTASLTITGAQAEDEADYYCNSRDSSGNHLVFGGGTKLTVLG",–,4.7,10.5,"EC50, dPT (diluted prothrombin time), human HEM A plasma [2]: 9 nM; EC50, FXa-Activated Clotting Assay, rabbit HEM A plasma [3]: 10.5 nM; EC50, FXa-Activated Clotting Assay, rabbit normal plasma [3]: 25.7 nM; EC50, FXa-Activated Clotting Assay, cyno HEM A plasma [4]: 4.3 nM; EC50, FXa-Activated Clotting Assay, cyno normal plasma [4]: 21.5 nM; EC50, dPT (diluted prothrombin time), cyno HEM A plasma [4]: 13.9 nM"
"TPP-2016 hIgG (antibody, V domains shown) VH: EVQLLESGGGLVQPGGSLRLSCAASGFTFSKYRMDWVRQAPGKGLEWVSRIGPSGGKTTYADSVKGRFTISRDNSKNTLYLQMNSLRAEDTAVYYCAREKTSDLSGSYSEALDYWGQGTLVTVSS VL: DIQMTQSPATLSVSPGERATLSCRASQNINRNLAWYQQKPGRAPRLLIHTASTRAPGVPVRITGSGSGTEFTLTISSLEPEDFAVYFCQQYASPPRTFGQGTKVEIKR",binds,–,–,–
"TPP2803 IgG2, Germlined and converted to IgG2 (antibody, V domains shown) VH: EVQLLESGGGLVQPGGSLRLSCAASGFTFSSYRMSWVRQAPGKGLEWVSRIYSSGGRTRYADSVKGRFTISRDNSKNTLYLQMNSLRAEDTAVYYCAREKASDLSGSFSEALDYWGQGTLVTVSS VL: SSELTQDPAVSVALGQTVRITCQGDSLRSYYASWYQQKPGQAPVLVIYGKNNRPSGIPDRFSGSSSGNTASLTITGAQAEDEADYYCNSRDSSGNHLVFGGGTKLTVLG",–,2.7,2.4,–
